PMC10556033

Assay: eIF4E2 co-IP, 4E-T and GIGYF2 immunoblot
Details: glycan lost; control: MEST cDNA (wild type)

B1: mesoderm-specific transcript (MEST), also named PEG1: MEST N163Q (protein)
parent chain: MVRRDRLRRMREWWVQVGLLAVPLLAAYLHIPPPQLSPALHSWKSSGKFFTYKGLRIFYQDSVGVVGSPEIVVLLHGFPTSSYDWYKIWEGLTLRFHRVIALDFLGFGFSDKPRPHHYSIFEQASIVEALLRHLGLQNRRINLLSHDYGDIVAQELLYRYKQNRSGRLTIKSLCLSNGGIFPETHRPLLLQKLLKDGGVLSPILTRLMNFFVFSRGLTPVFGPYTRPSESELWDMWAGIRNNDGNLVIDSLLQYINQRKKFRRRWVGALASVTIPIHFIYGPLDPVNPYPEFLELYRKTLPRSTVSILDDHISHYPQLEDPMGFLNAYMGFINSF
other: eIF4E2-4E-T/GIGYF2 complex formation in cells: increases
